Assay results taken from paper PMC8683389, “The monofunctional CO dehydrogenase CooS is essential for growth of Thermoanaerobacter kivui on carbon monoxide” (Extremophiles, 2021).

Target: the molecule itself
Assay: SEC; analytical size exclusion on a calibrated Superdex 200 column, buffer B, size standards 43-440 kDa; oligomeric state of the purified complex

B1: His-CooSF1 complex of Thermoanaerobacter kivui (complex)
chain 1: MSDNYIYSAEKVIDELSRKPGFVDTAIKRWEKRDPKCGFGYKGICCRLCSNGPCRITPTQPVGICGATADTIVARNLLRAIAAGTSCYVHHCRNAANTLLSVAEGKSSYTIKDEEKLKKYAKKMGINTNKDIKRIAYEFATRVLNDLSKPYTEKAELVEKLSLPARVSTWKSLNIMPGGVNEEIIAALTKTSTNLNSDPVDMAVHCLRLGIITGIYGLELTCIMQDILLGSPKIASTYSNFGVIDQGYINLATIGGHQQVVSNRILEMASSKEWVKKAQEAGAKGFKIYGVTCVGQDYELRCASDKNSAFGGYVGNNFTQEYILGTGAIDLVFSEFNCTLPGIEPICKEYLVKQICLDDVAKKVGADLYQFQPEKADEYAAITLDEAIKAYKNRRGKVKIDVPTEKTPAMTGFTEDSIKGALGGSWKLLIDLIVKGDIKGVAGVVGCSNMAAKGHGIYGVELTKELIKRDILVLGNGCVGGNLENAGLYGLESIELAGPKLKEVCRKLNIPPVLNIGPCLSIGRIHIIAEEIAEELKVDVPQIPVVASAPQWLEEQALADGTFGVVLGLDLLLGTPPAVTGSNLITELLTSKLKDMVGARFIIEADPILGADAMESSIMERRKLLNI
chain 2: MDVKSGTKYIFADIKKCLGCRCCEQACADANGNRPYWELLGSGIPLSPNINILYIFLQDKNYPVMAQAVCRQCEDAPCVKICPVKAISVNPDGIKVIDKQRCIGCHSCSIVCPFGAVYIPDKHAVATKCTLCIERKGAEGQPACVEACPNGALQLVDTKEIGREKVKKIVSDTFSNK
notes: as the chain of m1; as the chain of m2; Written as the CooS-CooF1 unit; also called His-CooFS1; source: T. kivui pMU131_His-cooS, purified (Ni2+-NTA, Superdex 200); not shown: 10 x His, N-terminal, kept
stoichiometry N: 6
